Source: patent US20260116921A1, “PEPTIDE INHIBITORS OF INTERLEUKIN-23 RECEPTOR AND THEIR USE TO TREAT INFLAMMATORY DISEASES” (priority 2018, published 2026)
Each block holds one binder with its values, some of them ahead of it. Numbered stars: 1 amine (or outer) side, 2 acyl side, 3 side chain; on linkers, the order of the positions; unused ones are H or OH. Bridge positions count the residues as written; N and C are the ends. Square brackets hold non-standard residues; d marks the D form. Trp(7-Et) = 7-ethyl-tryptophan, CCc1cccc2c(C[C@H](N[*:1])C(=O)[*:2])c[nH]c12; Trp(7-OMe) = COc1cccc2c(C[C@H](N)C(=O)O)c[nH]c12; Trp(7-Me) = Cc1cccc2c(C[C@H](N)C(=O)O)c[nH]c12; 2Nal = N[C@@H](Cc1ccc2ccccc2c1)C(=O)O; AEF = NCCOc1ccc(C[C@H](N)C(=O)O)cc1; Cit = NC(=O)NCCC[C@H](N)C(=O)O; Pen = CC(C)(S)[C@H](N)C(=O)O; αMeK = C[C@](N)(CCCCN)C(=O)O; NMeA = CN[C@@H](C)C(=O)O; Aib = CC(C)(N)C(=O)O; βAla = NCCC(=O)O

Key:
IL-23R [1] = target: T1, IL-23R (human, UniProt Q5VWK5 24-629); assay: cell-based or functional assay
T1 sequence (looked up): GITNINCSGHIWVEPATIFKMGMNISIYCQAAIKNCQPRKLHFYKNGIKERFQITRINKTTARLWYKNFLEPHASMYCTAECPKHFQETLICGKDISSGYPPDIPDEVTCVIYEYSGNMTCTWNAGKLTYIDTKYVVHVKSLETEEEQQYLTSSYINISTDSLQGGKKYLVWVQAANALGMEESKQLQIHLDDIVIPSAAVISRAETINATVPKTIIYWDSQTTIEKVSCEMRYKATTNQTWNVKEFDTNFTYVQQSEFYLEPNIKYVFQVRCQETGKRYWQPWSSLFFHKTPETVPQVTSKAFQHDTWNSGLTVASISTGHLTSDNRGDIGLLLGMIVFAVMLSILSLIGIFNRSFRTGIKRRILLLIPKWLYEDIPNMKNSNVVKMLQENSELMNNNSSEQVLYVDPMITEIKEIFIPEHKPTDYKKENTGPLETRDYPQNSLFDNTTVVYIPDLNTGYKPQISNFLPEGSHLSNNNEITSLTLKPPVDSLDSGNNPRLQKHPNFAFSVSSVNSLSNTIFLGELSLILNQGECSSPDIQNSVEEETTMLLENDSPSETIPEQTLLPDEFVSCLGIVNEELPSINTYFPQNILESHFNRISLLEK

IL-23R [2] = target: T1, IL-23R; assay: cell-based or functional assay; remark: listed apart in the source

B1: SEQ ID NO: 265 (peptide)
peptide: Ac-[Pen]NT[Trp(7-Me)][Cit][Pen][AEF][2Nal][αMeK]K(Ac)N[NMeA]-NH2
modifications: disulfide 1-6; not fully specified; printed as Ac-[Pen]-NT-[W(7-Me)]-[Cit]-[Pen]-Phe[4-(2-aminoethoxy)]-[2-Nal]-[a-MeLys]-[Lys(Ac)]-[N-MeAla]-NH2
pStat3 HTRF (nM) IC50 (IL-23R [1]): < 1 nM

B3: SEQ ID NO: 224 (peptide)
peptide: XNTXQXXXXKXX
modifications: Ac-[Pen]-NT-[W(7-Me)]-Q-[Pen]-Phe[4-(2-aminoethoxy)]-[2-Nal]-[a-MeLeu]-[Lys(Ac)]-[Sarc]-[bA]-NH2; Pen-Pen disulfide
pStat3 HTRF (nM) IC50 (IL-23R [1]): > 100 nM

B4: SEQ ID NO: 208 (peptide)
peptide: XNTXQXXXXKLX
modifications: Ac-[Pen]-NT-[W(7-Me)]-Q-[Pen]-Phe[4-(2-aminoethoxy)]-[2-Nal]-[a-MeLeu]-[Lys(Ac)]-L-[bA]-NH2; Pen-Pen disulfide
NK Cell Assay (nM) IC50 (IL-23R [2]): < 10 nM

B6: SEQ ID NO: 220 (peptide)
peptide: XNTXQXXXXGPX
modifications: Ac-[Pen]-NT-[W(7-Me)]-Q-[Pen]-Phe[4-(2-aminoethoxy)]-[2-Nal]-[a-MeLeu]-G-[(D)Pro]-[bA]-NH2; Pen-Pen disulfide
pStat3 HTRF (nM) IC50 (IL-23R [1]): > 100 nM

B7: SEQ ID NO: 236 (peptide)
peptide: XNTXQXXXXXNX
modifications: Ac-[Pen]-NT-[W(7-Me)]-Q-[Pen]-Phe[4-(2-aminoethoxy)]-[2-Nal]-[a-MeLys]-[Aib]-N-[bA]-NH2; Pen-Pen disulfide
NK Cell Assay (nM) IC50 (IL-23R [2]): < 10 nM

B9: SEQ ID NO: 274 (peptide)
peptide: XNTXQXXXXKNX
modifications: Ac-[Pen]-N-T-[W(7-Me)]-Q-[Pen]-Phe[4-(2-aminoethoxy)]-[2-Nal]-[Achc]-[Lys(Ac)]-N-[bA]-NH2; Pen-Pen disulfide
pStat3 HTRF (nM) IC50 (IL-23R [1]): < 1 nM

B12: SEQ ID NO: 207 (peptide)
peptide: XNTXQXXXXKAX
modifications: Ac-[Pen]-NT-[W(7-Me)]-Q-[Pen]-Phe[4-(2-aminoethoxy)]-[2-Nal]-[a-MeLeu]-[Lys(Ac)]-A-[bA]-NH2; Pen-Pen disulfide
NK Cell Assay (nM) IC50 (IL-23R [2]): < 10 nM

B13: SEQ ID NO: 226 (peptide)
peptide: XNTXQXXXXKXX
modifications: Ac-[Pen]-NT-[W(7-Me)]-Q-[Pen]-Phe[4-(2-aminoethoxy)]-[2-Nal]-[a-MeLeu]-[Lys(Ac)]-[bA]-[bA]-NH2; Pen-Pen disulfide
NK Cell Assay (nM) IC50 (IL-23R [2]): < 10 nM

The remaining lines, values ahead:

pStat3 HTRF (nM) IC50 (IL-23R [1]): < 1 nM
B2: SEQ ID NO: 342 (peptide)
peptide: Ac-[Pen]NT[Trp(7-Me)][Cit][Pen][AEF][2Nal][αMeK]K(Ac)N[Aib]A-NH2
modifications: disulfide 1-6
SMILES: CC(=O)NCCCC[C@H](NC(=O)[C@](C)(CCCCN)NC(=O)[C@H](Cc1ccc2ccccc2c1)NC(=O)[C@H](Cc1ccc(OCCN)cc1)NC(=O)[C@H]1NC(=O)[C@H](CCCNC(N)=O)NC(=O)[C@H](Cc2c[nH]c3c(C)cccc23)NC(=O)[C@H]([C@@H](C)O)NC(=O)[C@H](CC(N)=O)NC(=O)[C@@H](NC(C)=O)C(C)(C)SSC1(C)C)C(=O)N[C@@H](CC(N)=O)C(=O)NC(C)(C)C(=O)N[C@@H](C)C(N)=O

pStat3 HTRF (nM) IC50 (IL-23R [1]): < 1 nM
B5: SEQ ID NO: 322 (peptide)
peptide: XNTXXXXXXKNL
modifications: Ac-[Pen]-N-T-[W(7-Me)]-[Lys(Aib)]-[Pen]-Phe[4-(2-aminoethoxy)]-[2-Nal]-[a-MeLys]-[Lys(Ac)]-N-[(D)Leu]-NH2; Pen-Pen disulfide

pStat3 HTRF (nM) IC50 (IL-23R [1]): > 100 nM
B8: SEQ ID NO: 300 (peptide)
peptide: Ac-[Pen]NT[Trp(7-OMe)][Cit][Pen][AEF][2Nal][αMeK]K(Ac)N[dK]-NH2
modifications: disulfide 1-6
SMILES: COc1cccc2c(C[C@@H]3NC(=O)[C@H]([C@@H](C)O)NC(=O)[C@H](CC(N)=O)NC(=O)[C@@H](NC(C)=O)C(C)(C)SSC(C)(C)[C@@H](C(=O)N[C@@H](Cc4ccc(OCCN)cc4)C(=O)N[C@@H](Cc4ccc5ccccc5c4)C(=O)N[C@@](C)(CCCCN)C(=O)N[C@@H](CCCCNC(C)=O)C(=O)N[C@@H](CC(N)=O)C(=O)N[C@H](CCCCN)C(N)=O)NC(=O)[C@H](CCCNC(N)=O)NC3=O)c[nH]c12

pStat3 HTRF (nM) IC50 (IL-23R [1]): < 1 nM
B10: SEQ ID NO: 340 (peptide)
peptide: Ac-[Pen]NT[Trp(7-Me)][Cit][Pen][AEF][2Nal][αMeK]K(Ac)N[Aib][βAla]-NH2
modifications: disulfide 1-6
SMILES: CC(=O)NCCCC[C@H](NC(=O)[C@](C)(CCCCN)NC(=O)[C@H](Cc1ccc2ccccc2c1)NC(=O)[C@H](Cc1ccc(OCCN)cc1)NC(=O)[C@H]1NC(=O)[C@H](CCCNC(N)=O)NC(=O)[C@H](Cc2c[nH]c3c(C)cccc23)NC(=O)[C@H]([C@@H](C)O)NC(=O)[C@H](CC(N)=O)NC(=O)[C@@H](NC(C)=O)C(C)(C)SSC1(C)C)C(=O)N[C@@H](CC(N)=O)C(=O)NC(C)(C)C(=O)NCCC(N)=O

pStat3 HTRF (nM) IC50 (IL-23R [1]): < 1 nM
B11: SEQ ID NO: 341 (peptide)
peptide: Ac-[Pen]NT[Trp(7-Me)][Cit][Pen][AEF][2Nal][αMeK]K(Ac)N[Aib]G-NH2
modifications: disulfide 1-6
SMILES: CC(=O)NCCCC[C@H](NC(=O)[C@](C)(CCCCN)NC(=O)[C@H](Cc1ccc2ccccc2c1)NC(=O)[C@H](Cc1ccc(OCCN)cc1)NC(=O)[C@H]1NC(=O)[C@H](CCCNC(N)=O)NC(=O)[C@H](Cc2c[nH]c3c(C)cccc23)NC(=O)[C@H]([C@@H](C)O)NC(=O)[C@H](CC(N)=O)NC(=O)[C@@H](NC(C)=O)C(C)(C)SSC1(C)C)C(=O)N[C@@H](CC(N)=O)C(=O)NC(C)(C)C(=O)NCC(N)=O

pStat3 HTRF (nM) IC50 (IL-23R [1]): < 1 nM
Binder: Ac-[Pen]NT[Trp(7-Et)]K(Ac)[Pen][AEF][2Nal][αMeK]K(Ac)N[dL]-NH2 (disulfide 1-6 (inferred)) [SEQ ID NO: 284]

pStat3 HTRF (nM) IC50 (IL-23R [1]): < 1 nM
B14: SEQ ID NO: 276 (peptide)
peptide: XNTXQXXXXKNX
modifications: Ac-[Pen]-N-T-[W(7-Me)]-Q-[Pen]-Phe[4-(2-aminoethoxy)]-[2-Nal]-[DiethylGly]-[Lys(Ac)]-N-[bA]-NH2; Pen-Pen disulfide
